Target: FoxO3-GST (human, UniProt O43524 1-673)
Test: EMSA; 5 nM probe; 50 ng/ul protein; Binding Buffer as printed: 200 mM Tris-HCl pH 7.5, 200 mM KCl, 200 mM MgCl2, 2% NP-40, 10% glycerol, 5 mM DTT, 500 ng/ul salmon sperm DNA (possibly a stock concentration); room temperature 20 min; 4% native PAGE at 4 C
Settings: protein: recombinant; tags: GST; label: 32P; blunt

Chain of FoxO3-GST (O43524 whole entry): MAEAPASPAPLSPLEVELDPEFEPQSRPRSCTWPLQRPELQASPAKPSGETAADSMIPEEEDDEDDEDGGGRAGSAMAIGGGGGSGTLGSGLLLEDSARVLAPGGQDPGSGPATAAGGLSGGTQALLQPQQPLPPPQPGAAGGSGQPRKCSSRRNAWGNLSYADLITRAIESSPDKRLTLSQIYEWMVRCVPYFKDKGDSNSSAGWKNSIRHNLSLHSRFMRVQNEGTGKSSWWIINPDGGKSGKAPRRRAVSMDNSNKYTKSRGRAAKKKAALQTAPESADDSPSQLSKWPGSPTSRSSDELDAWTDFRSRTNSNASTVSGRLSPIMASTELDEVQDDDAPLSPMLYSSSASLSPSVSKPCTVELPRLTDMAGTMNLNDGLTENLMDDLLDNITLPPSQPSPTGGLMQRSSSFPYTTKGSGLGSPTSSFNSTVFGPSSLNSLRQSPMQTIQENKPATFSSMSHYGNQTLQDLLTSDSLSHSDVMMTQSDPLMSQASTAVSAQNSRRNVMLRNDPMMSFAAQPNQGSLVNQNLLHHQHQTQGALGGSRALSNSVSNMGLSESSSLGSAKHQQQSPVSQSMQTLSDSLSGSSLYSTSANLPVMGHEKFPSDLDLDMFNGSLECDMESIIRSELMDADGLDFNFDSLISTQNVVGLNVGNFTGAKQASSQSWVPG

B1: FHRE WT (miR-106b~25/Mcm7 intron 1) (dsDNA)
DNA 1: GGCCCATGTGCTTCTTTGTTTACTAAGAGCGGAAGCAG
DNA 2: CTGCTTCCGCTCTTAGTAAACAAAGAAGCACATGGGCC
binding result: binds
